Experimental data taken from the supplement of paper PMC9732359.
± gives the uncertainty stated by the source.

experiment: protein stability index of a GFP-peptide fusion (yeast GPS) (PSI 1-4); higher = more stable; sorted into four equal gates, so the index is relative within each strain; settings: san1∆
How it was run: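 Yeast carrying a pooled library were grown to mid-log phase in leucine-free medium. Each library plasmid expresses Cherry and has a tiled 17-residue yeast protein peptide fused downstream of GFP. Cells were sorted into four equal gates by GFP/Cherry ratio, and plasmids from each gate were PCR-amplified, Illumina-sequenced and assigned to strains by barcode. Summing, across gates, the read frequency times the gate number gave each peptide's protein stability index.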

| Sequence | protein stability index |
| --- | --- |
| NTHAVLVALKRNADELS [PRE5] | 2.45 ± 0.05 |
| NTSAIQETASPLSQDEL [YIL149C/MLP2] | 1.19 ± 0.17 |
| NTSIAQFDIQSPLYMDT [YML103C/NUP188] | 2.08 ± 0.081 |
| NTSLNINGWKFESLPLK [SWP82] | 2.96 ± 0.053 |
| NTSSLQSFQNPFTASQS [YIL149C/MLP2] | 2.45 ± 0.048 |
| NVASLVRVQFQFTGFLL [GRR1] | 1.48 ± 0.1 |
| NVDYYNVAHRIKEDIKK [SNF2] | 3.11 ± 0.04 |
| NVEEEQIVPYIEKLTDG [BRR2] | 2.91 ± 0.071 |
| NVEMEEDVLVNQILMSV [RPL1A] | 1.61 ± 0.15 |
| NVETYEQILQWVTEVLG [BRR2] | 1.77 ± 0.089 |
| NVGLCITIYDLLTVEEG [RPC25] | 1.45 ± 0.16 |
| NVIITGSTSLIEGMEQR [ARP7] | 2.27 ± 0.065 |
| NVKVIMATNRADTLDPA [RPT3] | 1.94 ± 0.22 |
| NVLFLRLFNNVKIHSQE [SRP72] | 1.66 ± 0.061 |
| NVTLVNGKRRMNPGPSV [RPS30A] | 2.67 ± 0.055 |
| NVVNYLSINKNFINQED [RPC17] | 1.55 ± 0.079 |
| NWRLVEVGRVVLIKKGQ [RPL14A] | 2.15 ± 0.13 |
| NYGSSLQWHAMIELICS [AAR2] | 1.1 ± 0.16 |
| NYNHLLPTRYTLDVEAF [RPL27A] | 1.57 ± 0.087 |
| NYPQDEINAVFNELCDP [POP1] | 2.9 ± 0.057 |
| NYTDLIWFPEDFISPEL [MED1] | 2.82 ± 0.067 |
| PAELDLRGSLLSRKPSD [RPC82] | 3.11 ± 0.099 |
| PAFKPTEKKFTKEQYAA [RPL5] | 2.79 ± 0.067 |
| PAKSASARGSYLRVSFK [RPL17A] | 3.091 ± 0.029 |
| PDILATDLIREKTMMTF [YCS4] | 2.86 ± 0.082 |

| Sequence | protein stability index |
| --- | --- |
| PDLDTECFISMQSTSPA [SWI1] | 2.32 ± 0.17 |
| PDMYERKVENIRTILVN [MED7] | 1.46 ± 0.096 |
| PDNSIFGDTKSESKQLG [SWI3] | 3.21 ± 0.076 |
| PDPRSTVIPEDEEIIQL [RPO21] | 2.79 ± 0.077 |
| PDYYVSILSFVDKELLE [RPT2] | 2.39 ± 0.05 |
| PEETPLEELAETFQDTF [FAS2] | 3.12 ± 0.048 |
| PEFAGYSKAAEPHAVSL [ASC1] | 2.17 ± 0.068 |
| PEGRLYQVEYAFKATNQ [SCL1] | 1.78 ± 0.1 |
| PEKEASSATIVLCLTRS [YCG1] | 2.1 ± 0.056 |
| PETCLFVSYFGKQIKST [YML103C/NUP188] | 2.27 ± 0.062 |
| PFMLQWGIPLIKELRSK [FAS1] | 1.44 ± 0.1 |
| PFTDRSVVRGNTFKVLS [COB] | 2.52 ± 0.091 |
| PGFDEFQLIDMKDKEIN [CSI1] | 3.41 ± 0.045 |
| PGNGKHASENISLSFSR [SIR4] | 2.97 ± 0.061 |
| PGPRLLYENIASSPIIL [RPN10] | 2.2 ± 0.057 |
| PGRLDRKIEFPSLRDRR [RPT3] | 3.23 ± 0.048 |
| PGTITHGMFSSASVRAL [FAS1] | 2.53 ± 0.053 |
| PGTNGKVKKPLKYLSVE [PRE7] | 3.15 ± 0.09 |
| PGTTSTGNNNNIATQQN [GAL11] | 2.77 ± 0.085 |
| PHELTESVLPAARYDYA [QCR2] | 2.09 ± 0.081 |
| PHHNQSPRNTYQCAMGK [RET1] | 3 ± 0.14 |
| PHLFVNGDLTVSLCAKN [SSN2] | 2.25 ± 0.18 |
| PHQSPDATRVFVNGVWH [RPB2] | 2.98 ± 0.047 |
| PHTPVTRKGYIPSSKYA [YLR018C/POM34] | 2.96 ± 0.082 |
| PIAASTDLPIETAAMAS [RPN1] | 1.53 ± 0.06 |

| Sequence | protein stability index |
| --- | --- |
| PIDAGLNEAPFPEENII [MCD1] | 3.06 ± 0.033 |
| PIDNNIIFASTKLGFTF [SNU114] | 2.38 ± 0.054 |
| PIFSFGKQEENGDEGDD [YOR098C/NUP1] | 3.55 ± 0.096 |
| PIIATYGNRAEQFLETD [SRP68] | 2.26 ± 0.14 |
| PINLQNGEEDEVALFSQ [YLR335W/NUP2] | 3.22 ± 0.054 |
| PIPIPAFADRLGQYVQA [PRE10] | 1.75 ± 0.11 |
| PIPSSETKADGILLETI [RRP6] | 2.12 ± 0.1 |
| PISKHSKQAIYTRAAAS [RPS25B] | 2.43 ± 0.061 |
| PITASTSRVFAKIISKA [YML103C/NUP188] | 2.53 ± 0.21 |
| PIVIIFRALGIIPDGEI [RPB2] | 2.05 ± 0.063 |
| PKAMTDTDNECVAAWGV [HRT1] | 3.03 ± 0.13 |
| PKSSPLKKNNYNSFPHS [SIR4] | 3.07 ± 0.046 |
| PKYAKQKDKSDTYKRFK [ISW2] | 3.13 ± 0.11 |
| PKYRDNLATWYHSAGGR [SSN3] | 3.1 ± 0.059 |
| PLASEESLTNSNMFDNS [YGL100W/SEH1] | 3.07 ± 0.12 |
| PLIQNSMRTIMKANPAL [PRP8] | 1.56 ± 0.3 |
| PLKYAPHLPFSKSENPV [SWI3] | 2.66 ± 0.091 |
| PLNVLQDQYKEGIKVVD [SNF2] | 1.78 ± 0.092 |
| PLPHRVQKSTKTFSYKR [RPL20A] | 2.63 ± 0.057 |
| PLPVETPRDRRKSVFAP [SSN2] | 2.99 ± 0.099 |
| PLQNNLPELWALLNFVL [SNF2] | 2.56 ± 0.057 |
| PLQVARCTKIIKGNGES [RPT1] | 2.72 ± 0.09 |
| PLRLRLYDNFVSKFYDK [RPN9] | 3.17 ± 0.064 |
| PLSNEVFEISENNSDSN [SWI1] | 2.84 ± 0.084 |
| PMPIITFLSEWGMEPLE [RPB2] | 2.51 ± 0.08 |

| Sequence | protein stability index |
| --- | --- |
| PNADDIRDSIPQMDSFD [DIS3] | 3.14 ± 0.09 |
| PNGTKKAYVRLTADYDA [RPL25] | 3.07 ± 0.16 |
| PNHIPSVNPSNKPIKRM [SWP82] | 2.75 ± 0.081 |
| PNIRELGVKNLGLCCLL [YCG1] | 1.87 ± 0.21 |
| PNIRTMSGTTKRLNGKR [SSN2] | 2.39 ± 0.17 |
| PNLLFSMCGFEVRILPR [PRP8] | 2.25 ± 0.055 |
| PNVFDKDSYVRIANIEQ [YDL088C/ASM4] | 3.04 ± 0.07 |
| PPETKLPYPTYWSDKKA [SNF5] | 3.15 ± 0.056 |
| PPKHTELLLTTLSVSHG [SSN2] | 1.55 ± 0.07 |
| PPPGLDELETKAEKKVE [PRP8] | 3.13 ± 0.05 |
| PPQLANQQQPPQDILSK [SNF11] | 2.41 ± 0.065 |
| PPSVTLQDWQREDEFGS [YDL088C/ASM4] | 2.99 ± 0.065 |
| PQAILAKNSIIDSSNLP [SWI1] | 2.32 ± 0.05 |
| PQGRQSTTFADCPVVPA [RPC40] | 2.49 ± 0.1 |
| PQGSTTNGGLFGSGTQN [YGR119C/NUP57] | 3.3 ± 0.042 |
| PQRLQRKRHQRALKVRN [RPS6A] | 2.64 ± 0.096 |
| PRFNRENKVSPADAAKK [RPS26A] | 2.98 ± 0.075 |
| PRSPGRSPTRRLELLQL [SMC4] | 1.99 ± 0.25 |
| PRVIEPVYTAQWSATWI [PRP8] | 2.08 ± 0.07 |
| PSGAKKVISSDARGVIG [RPL2A] | 2.9 ± 0.076 |
| PSILEDSLENNEGVPSP [FAS1] | 3.22 ± 0.17 |
| PSIVFIDEIDAIGTKRY [RPT2] | 2.14 ± 0.17 |
| PSLRKLIESGIGTHHAG [BRR2] | 3.11 ± 0.2 |

same assay, conditions: ubr1∆

| Sequence | protein stability index |
| --- | --- |
| NTEEVNRLEKEQSVKTQ [LIN1] | 1.74 ± 0.27 |
| NTHAVLVALKRNADELS [PRE5] | 2.41 ± 0.039 |
